Laboratory results taken from patent US20250326813A1 (ELPIS BIOPHARMACEUTICALS, published 2025).

T1: human IL2Rα Fc fusion protein (human, UniProt P01589 22-213, limits assumed)
T1 construct: also called CD25; not shown: Fc part
T1 sequence (looked up): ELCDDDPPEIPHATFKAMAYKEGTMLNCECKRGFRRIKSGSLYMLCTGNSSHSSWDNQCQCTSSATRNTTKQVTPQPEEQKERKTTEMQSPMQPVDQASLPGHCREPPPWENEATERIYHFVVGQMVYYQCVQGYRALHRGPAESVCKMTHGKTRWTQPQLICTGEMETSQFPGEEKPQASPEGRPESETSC

T2: human IL2Rβ Fc fusion protein (human, UniProt P14784 27-239)
T2 construct: also called ILR2β; CD122; not shown: Fc part
T2 sequence (looked up): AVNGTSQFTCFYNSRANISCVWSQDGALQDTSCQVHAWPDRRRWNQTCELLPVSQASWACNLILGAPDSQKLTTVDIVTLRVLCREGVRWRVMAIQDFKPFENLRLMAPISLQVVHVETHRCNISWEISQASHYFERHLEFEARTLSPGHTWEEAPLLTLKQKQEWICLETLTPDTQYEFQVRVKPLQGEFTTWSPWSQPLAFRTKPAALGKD


What was measured:
[1] = target: T1, human IL2Rα Fc fusion protein; assay: ELISA, single concentration, anti-flag detection, E. coli-produced clone
Experimental: (§1) Supernatants containing engineered IL2 mutants were assessed with sandwich ELISA assay to screen for IL2Rα binding. Briefly, 96-well plate was immobilized with human Fc and human IL2Rα, respectively, at a final concentration of 2 μg/mL in 1× PBS in total volume of 50 μL per well. The plate was incubated overnight at 4° C. followed by blocking with 200 μL of superblock per well for 1 hour. 100 μl of supernatant was added to both Fc and IL2Rα immobilized wells and incubated for 1 hour with shaking. The engineered IL2 mutant binding was detected by adding 50 μL of anti-Flag HRP diluted at 1:5000 in 1× PBST. In between each step, the plate was washed three times with 1× PBST in a plate washer. The plate was then developed with 50 μL of TMB substrate for five minutes and stopped by adding 50 μL of 2N sulfuric acid. The plate was read at OD450 nm using a Biotek plate reader and the binding and selectivity was analyzed.
as §1, with “Single clones were next screened for IL2Rβ binding. IL2Rβ binding screening ELISA was developed for the identification of individual” for “Supernatants containing”, “mutant.” for “mutants were assessed with sandwich ELISA assay to screen for IL2Rα binding.”, “IL2Rβ,” for “IL2Rα,”, “IL2Rβ” for “IL2Rα”
(§2) To further triage, the engineered IL2 clones with unique sequences were produced in E. coli. In short, the glycerol stock of each engineered agonist clone was inoculated into TB medium for overnight growth. The next day, cells from the overnight culture were inoculated into TB medium and grown to a cell density of OD₆₀₀ between 0.6-0.8. IPTG was added to a final concentration of 1 mM to induce the expression during culture at 30° C. overnight. The supernatant was collected by centrifugation.

[2] = target: T1, human IL2Rα Fc fusion protein; assay: SPR (Biacore T200), receptor captured on Protein A chip, IL2 at 100 nM and 20 nM
Experimental: The assay was run with Biacore T200 control software version 2.0. For each cycle, 1 μg/mL of human IL2Rβ or IL2Rα was captured for 60 seconds at flow rate of 10 μL/min on flow cell 2 in 1× HBSP buffer on Protein A sensor chip. 100 nM and 20 nM of HIS tag purified engineered IL2 mutant was injected onto both reference flow cell 1 and IL2Rβ or IL2Rα captured flow cell 2 for 150 seconds at flow rate of 30 μL/min followed by washing for 300 seconds. The flow cells were then regenerated with Glycine pH 2 for 60 seconds at a flow rate of 30 μL/mins. The kinetics data was analyzed with Biacore T200 evaluation software 3000. The specific binding response unit was derived from subtraction of binding to reference flow cell 1 from target flow cell 2.

[3] = target: T2, human IL2Rβ Fc fusion protein; assay: ELISA, single concentration, anti-flag detection, E. coli-produced clone
Experimental: as §1
as §1, with “Single clones were next screened for IL2Rβ binding. IL2Rβ binding screening ELISA was developed for the identification of individual” for “Supernatants containing”, “mutant.” for “mutants were assessed with sandwich ELISA assay to screen for IL2Rα binding.”, “IL2Rβ,” for “IL2Rα,”, “IL2Rβ” for “IL2Rα”
as §2

Binder	OD450 nm [1]	Kd [2]	OD450 nm [3]
EP564 (clone 2021EP22-E11), E. coli-produced (ligand) APASSSTKKTQLQLEHLLLDLQMILNGINNYKNPKLTRMLTFKFYMPKKATELKHLQCLEEELKPLEEVLNLAQSKNFHLRFKALIIEINFIVQLLKGSETTFMCEYADETATIVEFLNRWITFSQSIISTLT	0.086 OD450	18 nM	–
EP569 (clone 2021EP22-E03), E. coli-produced (ligand) APASSSTKKTQLQLEHLLLDLQMILNGINNYKNPKLTRMLTFKFYMPKKATELKHLQCLEEELKPLEEVLNLAQSKNFHLRRKESINHMIVVFPVLKGSETTFMCEYADETATIVEFLNRWITFSQSIISTLT	0.433 OD450	47.8 nM	–
EP566 (clone 2021EP22-H09), E. coli-produced (ligand) APASSSTKKTQLQLEHLLLDLQMILNGINNYKNPKLTRMLTFKFYMPKKATELKHLQCLEEELKPLEEVLNLAQSKNFHLRLTHLRNVIGVILVQLKGSETTFMCEYADETATIVEFLNRWITFSQSIISTLT	0.251 OD450	523 nM	–
EP570 (clone 2021EP21-E03), E. coli-produced (ligand) APASSSTKKTQLQLEHLLLDLQMILNGINNYKNPKLTRMLTFKFYMPKKATELKHLQCLEEELKPLEEVLNLAQSKNFHLSSSGLLGDVWVIVLDLKGSETTFMCEYADETATIVEFLNRWITFSQSIISTLT	0.528 OD450	21.3 nM	–
EP565 (clone 2021EP22-F10), E. coli-produced (ligand) APASSSTKKTQLQLEHLLLDLQMILNGINNYKNPKLTRMLTFKFYMPKKATELKHLQCLEEELKPLEEVLNLAQSKNFHLRSRQLISNMNGIILKLKGSETTFMCEYADETATIVEFLNRWITFSQSIISTLT	0.105 OD450	142 nM	–

The remaining lines, values ahead:

OD450 nm [1]	Kd [2]	OD450 nm [3]	Binder
0.079 OD450	75.5 nM	0.143 OD450	EP572 (clone 2021EP21-C03), E. coli-produced (ligand) APASSSTKKTQLQLEHLLLDLQMILNGINNYKNPKLTRMLTFKFYMPKKATELKHLQCLEEELKPLEEVLNLAQSKNFHLRARDIVRNAKVGVQELKGSETTFMCEYADETATIVEFLNRWITFSQSIISTLT
0.423 OD450	117 nM	0.653 OD450	EP571 (clone 2021EP22-H02), E. coli-produced (ligand) APASSSTKKTQLQLEHLLLDLQMILNGINNYKNPKLTRMLTFKFYMPKKATELKHLQCLEEELKPLEEVLNLAQSKNFHLRPSELMATMRVPVQALKGSETTFMCEYADETATIVEFLNRWITFSQSIISTLT
0.749 OD450	–	0.323 OD450	EP583 (clone 2021EP16-H10), E. coli-produced (ligand) APASSSTKKTQLQLEHLLLDLQMILNGINNYKNPKLTRMLTFKFYMPKKATELKHLQCLEEELKPLEEVLNLAQSKNFHLSAIDLMSSVKVVVWKLKGSETTFMCEYADETATIVEFLNRWITFSQSIISTLT
0.857 OD450	9340 nM	–	EP578 (clone 2021EP16-H02), E. coli-produced (ligand) APASSSTKKTQLQLEHLLLDLQMILNGINNYKNPKLTRMLTFKFYMPKKATELKHLQCLEEELKPLEEVLNLAQSKNFHLTTRDVVMTMARIDLELKGSETTFMCEYADETATIVEFLNRWITFSQSIISTLT
0.171 OD450	207 nM	–	EP574 (clone 2021EP22-B04), E. coli-produced (ligand) APASSSTKKTQLQLEHLLLDLQMILNGINNYKNPKLTRMLTFKFYMPKKATELKHLQCLEEELKPLEEVLNLAQSKNFHLFTKDLTSTMQILVLQLKGSETTFMCEYADETATIVEFLNRWITFSQSIISTLT
–	–	0.611 OD450	EP579 (clone 2021EP16-E11), E. coli-produced (ligand) APASSSTKKTQLQLEHLLLDLQMILNGINNYKNPKLTRMLTFKFYMPKKATELKHLQCLEEELKPLEEVLNLAQSKNFHLRPSYIVSYTNVFPLVLKGSETTFMCEYADETATIVEFLNRWITFSQSIISTLT
–	–	0.505 OD450	EP586 (clone 2021EP16-E07), E. coli-produced (ligand) APASSSTKKTQLQLEHLLLDLQMILNGINNYKNPKLTRMLTFKFYMPKKATELKHLQCLEEELKPLEEVLNLAQSKNFHLRPRDSRRLISVIVFRLKGSETTFMCEYADETATIVEFLNRWITFSQSIISTLT
